{
  "source": "patent US20190256864A1",
  "about": "(INDIANA UNIVERSITY RESEARCH AND TECHNOLOGY, published 2019)",
  "key": {"[1]": {"test_system": "T1, Wheat streak mosaic virus (WSMV) PBS1 decoy protein", "T1 sequence": "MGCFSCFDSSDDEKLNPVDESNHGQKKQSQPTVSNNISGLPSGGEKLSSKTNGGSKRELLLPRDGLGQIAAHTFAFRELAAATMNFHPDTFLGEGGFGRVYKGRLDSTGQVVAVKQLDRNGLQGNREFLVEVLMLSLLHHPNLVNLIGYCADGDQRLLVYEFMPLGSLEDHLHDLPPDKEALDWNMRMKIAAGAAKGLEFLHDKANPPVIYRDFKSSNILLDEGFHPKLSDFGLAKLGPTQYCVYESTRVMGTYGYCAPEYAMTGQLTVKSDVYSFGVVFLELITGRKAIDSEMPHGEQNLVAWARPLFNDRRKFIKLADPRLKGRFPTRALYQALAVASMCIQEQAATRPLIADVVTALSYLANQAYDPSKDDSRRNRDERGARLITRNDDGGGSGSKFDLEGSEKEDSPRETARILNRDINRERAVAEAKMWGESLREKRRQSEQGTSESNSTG"}, "[2]": {"test_system": "T2, Soybean mosaic virus (SMV) PBS1 decoy protein", "T2 sequence": "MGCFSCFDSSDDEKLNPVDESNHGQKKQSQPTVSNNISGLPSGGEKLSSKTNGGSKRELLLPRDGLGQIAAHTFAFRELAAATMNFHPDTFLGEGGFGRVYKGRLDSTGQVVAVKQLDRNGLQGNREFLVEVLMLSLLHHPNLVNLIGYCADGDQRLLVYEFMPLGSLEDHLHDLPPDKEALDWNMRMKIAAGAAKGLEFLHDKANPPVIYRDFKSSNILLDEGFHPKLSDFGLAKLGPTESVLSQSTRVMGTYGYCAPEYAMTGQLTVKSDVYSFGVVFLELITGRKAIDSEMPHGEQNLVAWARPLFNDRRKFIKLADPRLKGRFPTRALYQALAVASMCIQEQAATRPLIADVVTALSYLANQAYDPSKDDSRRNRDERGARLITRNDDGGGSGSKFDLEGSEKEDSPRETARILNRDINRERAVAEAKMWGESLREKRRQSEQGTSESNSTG"}, "sYFP:LTI6b": {"molecular_target": "T3, sYFP:LTI6b (Arabidopsis thaliana, UniProt Q9ZNS6 1-54)", "T3 construct": "Negative control in the co-immunoprecipitation; also called sYFP:LTI6b fusion protein; plasma membrane-localized negative control; not shown: N-terminal super yellow fluorescent protein (sYFP)", "T3 sequence (looked up)": "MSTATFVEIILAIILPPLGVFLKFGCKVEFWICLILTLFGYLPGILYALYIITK", "test": "co-immunoprecipitation (GFP-Trap beads, anti-HA blot) after transient co-expression in N. benthamiana", "protocol": "To determine whether PBR1.c is activated by sensing cleavage of PBS1 proteins, co-immunoprecipitation (co-IP) analyses of PBR1.c with HvPBS1-1:HA, HvPBS1-2:HA, AtPBS1:HA, or NbPBS1:HA was performed. As a positive control, AtPBS1:HA was co-expressed with RPS5:sYFP, which forms a pre- activation complex in the absence of AvrPphB. As a negative control, the plasma membrane-localized fusion protein sYFP:LTI6b with each of the PBS1 proteins (Cutler et al., 2000). […] NbPBS1:HA also immunoprecipitated with PBR1.c:sYFP (and not with sYFP:LTI6b) supporting the notion that AvrPphB-mediated cleavage of NbPBS1 activates PBR1.c-dependent HR in N. benthamiana. Though all of the PBS1 proteins immunoprecipitated with PBR1.c:sYFP, PBR1.c:sYFP preferentially interacted with HvPBS1-2:HA and AtPBS1:HA (FIG. 7).\nFor transient expression assays in N. benthamiana, we followed the protocol described by DeYoung et al. (2012) and Kim et al. (2016). Briefly, the dexamethasone-inducible constructs were transformed into Agrobacterium tumefaciens GV3101 (pMP90) strains and were streaked onto Luria-Bertani (LB) plates containing 30 μg of gentamicin sulfate per milliliter and 50 μg of kanamycin per milliliter. […]"}, "HvPBS1-1:HA": {"molecular_target": "T4, HvPBS1-1:HA", "T4 chain": "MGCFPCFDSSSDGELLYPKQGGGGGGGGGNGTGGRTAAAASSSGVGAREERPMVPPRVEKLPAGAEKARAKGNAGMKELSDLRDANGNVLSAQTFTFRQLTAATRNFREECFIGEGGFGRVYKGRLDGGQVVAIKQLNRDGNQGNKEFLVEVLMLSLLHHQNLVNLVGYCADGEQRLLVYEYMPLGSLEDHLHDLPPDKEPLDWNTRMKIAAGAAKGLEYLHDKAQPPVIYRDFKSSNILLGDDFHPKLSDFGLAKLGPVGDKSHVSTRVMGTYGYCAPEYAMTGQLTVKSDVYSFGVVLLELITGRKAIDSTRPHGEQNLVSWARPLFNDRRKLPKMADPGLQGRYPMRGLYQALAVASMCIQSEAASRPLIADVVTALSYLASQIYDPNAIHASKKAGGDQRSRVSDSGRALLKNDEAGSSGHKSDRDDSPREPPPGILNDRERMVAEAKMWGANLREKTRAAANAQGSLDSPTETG"}, "HvPBS1-2:HA": {"molecular_target": "T5, HvPBS1-2:HA", "T5 chain": "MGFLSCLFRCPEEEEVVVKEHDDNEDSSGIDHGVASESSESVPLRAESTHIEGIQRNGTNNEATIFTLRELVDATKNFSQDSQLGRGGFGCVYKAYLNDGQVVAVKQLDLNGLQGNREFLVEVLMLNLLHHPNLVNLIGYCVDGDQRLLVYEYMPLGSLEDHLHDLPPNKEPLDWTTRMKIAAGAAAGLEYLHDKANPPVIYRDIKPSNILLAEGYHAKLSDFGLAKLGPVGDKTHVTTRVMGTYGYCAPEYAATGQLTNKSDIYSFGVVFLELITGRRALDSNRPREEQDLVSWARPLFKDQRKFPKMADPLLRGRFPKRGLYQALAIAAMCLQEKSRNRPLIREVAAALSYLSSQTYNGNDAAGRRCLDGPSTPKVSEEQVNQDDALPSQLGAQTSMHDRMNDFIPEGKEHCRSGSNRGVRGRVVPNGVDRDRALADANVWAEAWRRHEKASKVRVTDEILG"}},
  "data": [
    {"molecule": "Wheat streak mosaic virus (WSMV) NIa protease", "values": [
      {"measurement": "cleavage of the substrate (immunoblot after transient co-expression in N. benthamiana)", "setting": "[1]", "result": "demonstrating cleavage of the decoy PBS1 proteins only by the matching proteases"},
      {"measurement": "cleavage of the substrate (immunoblot after transient co-expression in N. benthamiana); not cleaved by the non-matching protease", "setting": "[2]", "result": "demonstrating cleavage of the decoy PBS1 proteins only by the matching proteases"}
    ]},
    {"molecule": "HvPBS1-1:HA (enzyme, not shown: small tags and cut ends, also called HORVU2Hr1G070690.2; MLOC_13277) MGCFPCFDSSSDGELLYPKQGGGGGGGGGNGTGGRTAAAASSSGVGAREERPMVPPRVEKLPAGAEKARAKGNAGMKELSDLRDANGNVLSAQTFTFRQLTAATRNFREECFIGEGGFGRVYKGRLDGGQVVAIKQLNRDGNQGNKEFLVEVLMLSLLHHQNLVNLVGYCADGEQRLLVYEYMPLGSLEDHLHDLPPDKEPLDWNTRMKIAAGAAKGLEYLHDKAQPPVIYRDFKSSNILLGDDFHPKLSDFGLAKLGPVGDKSHVSTRVMGTYGYCAPEYAMTGQLTVKSDVYSFGVVLLELITGRKAIDSTRPHGEQNLVSWARPLFNDRRKLPKMADPGLQGRYPMRGLYQALAVASMCIQSEAASRPLIADVVTALSYLASQIYDPNAIHASKKAGGDQRSRVSDSGRALLKNDEAGSSGHKSDRDDSPREPPPGILNDRERMVAEAKMWGANLREKTRAAANAQGSLDSPTETG", "values": [
      {"measurement": "binding result", "setting": "sYFP:LTI6b", "result": "no binding"}
    ]},
    {"molecule": "HvPBS1-2:HA (enzyme, not shown: small tags and cut ends, also called HORVU3Hr1G035810.1; MLOC_12866) MGFLSCLFRCPEEEEVVVKEHDDNEDSSGIDHGVASESSESVPLRAESTHIEGIQRNGTNNEATIFTLRELVDATKNFSQDSQLGRGGFGCVYKAYLNDGQVVAVKQLDLNGLQGNREFLVEVLMLNLLHHPNLVNLIGYCVDGDQRLLVYEYMPLGSLEDHLHDLPPNKEPLDWTTRMKIAAGAAAGLEYLHDKANPPVIYRDIKPSNILLAEGYHAKLSDFGLAKLGPVGDKTHVTTRVMGTYGYCAPEYAATGQLTNKSDIYSFGVVFLELITGRRALDSNRPREEQDLVSWARPLFKDQRKFPKMADPLLRGRFPKRGLYQALAIAAMCLQEKSRNRPLIREVAAALSYLSSQTYNGNDAAGRRCLDGPSTPKVSEEQVNQDDALPSQLGAQTSMHDRMNDFIPEGKEHCRSGSNRGVRGRVVPNGVDRDRALADANVWAEAWRRHEKASKVRVTDEILG", "values": [
      {"measurement": "binding result", "setting": "sYFP:LTI6b", "result": "no binding"}
    ]},
    {"molecule": "AvrPphB(C98S):myc (protein) MKIGTQATSLAVLHNQESHAPQAPIAVRPEPAHAIPEIPLDLAIRPRTRGIHPFLAMTLGDKGCASSSGVSLEDDSHTQVSLSDFSVASRDVNHNNISAGLSTEWLVMSSDGDAESRMDHLDYNGEGQSRGSERHQVYNDALRAALSNDDEAPFFTASTAVIEDAGFSLRREPKTVHASGGSAQLGQTVAHDVAQSGRKHLLSLRFANVQGHAIACSCEGSQFKLFDPNLGEFQSSRSAAPQLIKGLIDHYNSLNYDVACVNEFRVS", "values": [
      {"measurement": "cleavage of the substrate (Western blot after transient co-expression in N. benthamiana)", "setting": "HvPBS1-1:HA", "result": "This did not produce any cleavage products"},
      {"measurement": "cleavage of the substrate (immunoblot after transient co-expression in N. benthamiana)", "setting": "NbPBS1:HA", "result": "Co-expression with AvrPphB:myc, but not the protease inactive mutant, resulted in cleavage of NbPBS1:HA"},
      {"measurement": "cleavage of the substrate (Western blot after transient co-expression in N. benthamiana)", "setting": "HvPBS1-2:HA", "result": "This did not produce any cleavage products"}
    ]}
  ]
}
